Test results taken from patent US20190062438A1 (CSL, published 2019).
Several values for one entry are separate records, joined by “and”; a condition that tells them apart may be missing. Equal values may be shown once.

Legend:
Test in all cases: SPR, kinetics, Fab over captured mutant
shCD131 K362A = biological target: T1, shCD131 K362A (human, UniProt P32927 17-438)
T1 construct: C-terminal 6xHis
T1 sequence: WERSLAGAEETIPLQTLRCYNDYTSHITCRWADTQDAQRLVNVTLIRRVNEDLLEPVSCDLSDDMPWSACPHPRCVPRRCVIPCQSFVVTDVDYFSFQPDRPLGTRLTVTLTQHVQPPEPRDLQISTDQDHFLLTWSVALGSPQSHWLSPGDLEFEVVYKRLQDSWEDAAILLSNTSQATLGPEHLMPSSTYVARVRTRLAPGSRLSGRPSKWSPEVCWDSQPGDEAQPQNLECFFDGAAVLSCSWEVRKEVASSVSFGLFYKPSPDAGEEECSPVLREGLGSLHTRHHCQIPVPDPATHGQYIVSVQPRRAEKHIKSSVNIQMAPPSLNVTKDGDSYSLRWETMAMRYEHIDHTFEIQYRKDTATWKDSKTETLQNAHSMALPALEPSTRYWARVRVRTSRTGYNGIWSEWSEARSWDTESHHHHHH
Experimental: (§1) As shβc is a dimer, kinetics assays were performed with shβc captured on the sensor surface, and purified Fab injected as the analyte. Avidity effects were avoided by the use of Fab rather than whole IgG.
(§2) shCD131 was captured on spots 1 and 5 of each flow cell for 2 minutes at a concentration of 0.4 μg/ml. […] For some analysis purified Fab was injected over each flow cell for 3 minutes and dissociation was monitored for a further 10 minutes. Regeneration of the surface was performed after each cycle with a 40 second injection of 25 mM glycine, pH 2.0. The analysis was performed with Fabs at several concentrations between 100 and 0.31 nM, with each concentration analyzed twice and in random order. The analysis was performed at a flow rate of 30 μl/min in HBS-EP buffer (10 mM Hepes, 150 mM NaCl, 3 mM EDTA, 0.005% Tween 20, pH 7.4) at 37° C. Responses from spots 2 and 4 of each flow cell, (in which shβc was not captured, but otherwise treated identically), were subtracted from those of spots 1 and 5 respectively to produce reference subtracted data. Reference subtracted responses from a blank injection comprising buffer alone were subtracted from the resultant sensorgrams to produce double referenced data suitable for kinetic analysis. Double-referenced sensorgrams were fitted using non-linear regression to a model describing 1:1 kinetics, including a term for mass transport limitation. The Rₘₐₓ value was fitted locally to account for slight deviations in the level of sCD131 captured, with association rate (kₐ), dissociation rate (kd) and equilibrium dissociation constant (KD) fitted globally.
(§3) Mapping of the shCD131 epitope was performed by measurement of the affinity of Fabs for various alanine point mutants of shCD131 essentially as described above, with the following exceptions. Each shCD131 mutant was captured for 120 seconds at concentrations between 1 and 5 μg/ml. For kinetic analysis, purified recombinant Fabs were injected for 2 minutes, and dissociation was monitored for a further 2 minutes. […] Fab concentrations ranged from 16 μM to 3.9 nM in two-fold dilutions.

shCD131 E366A = biological target: T2, shCD131 E366A (human, UniProt P32927 17-438)
T2 construct: C-terminal 6xHis
T2 sequence: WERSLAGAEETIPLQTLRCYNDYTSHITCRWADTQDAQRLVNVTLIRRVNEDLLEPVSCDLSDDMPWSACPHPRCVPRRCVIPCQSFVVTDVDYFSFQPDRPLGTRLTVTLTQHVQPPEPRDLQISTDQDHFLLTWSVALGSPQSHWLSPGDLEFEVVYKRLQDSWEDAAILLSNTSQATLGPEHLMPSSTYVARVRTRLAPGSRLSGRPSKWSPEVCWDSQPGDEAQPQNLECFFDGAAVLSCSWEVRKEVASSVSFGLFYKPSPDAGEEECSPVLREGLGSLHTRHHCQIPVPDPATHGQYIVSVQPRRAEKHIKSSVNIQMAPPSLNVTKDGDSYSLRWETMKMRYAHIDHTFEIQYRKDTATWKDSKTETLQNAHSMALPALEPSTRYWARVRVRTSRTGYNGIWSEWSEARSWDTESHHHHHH
Experimental: as §1, §2, §3

shCD131 N337A = biological target: T3, shCD131 N337A (human, UniProt P32927 17-438)
T3 construct: C-terminal 6xHis
T3 sequence: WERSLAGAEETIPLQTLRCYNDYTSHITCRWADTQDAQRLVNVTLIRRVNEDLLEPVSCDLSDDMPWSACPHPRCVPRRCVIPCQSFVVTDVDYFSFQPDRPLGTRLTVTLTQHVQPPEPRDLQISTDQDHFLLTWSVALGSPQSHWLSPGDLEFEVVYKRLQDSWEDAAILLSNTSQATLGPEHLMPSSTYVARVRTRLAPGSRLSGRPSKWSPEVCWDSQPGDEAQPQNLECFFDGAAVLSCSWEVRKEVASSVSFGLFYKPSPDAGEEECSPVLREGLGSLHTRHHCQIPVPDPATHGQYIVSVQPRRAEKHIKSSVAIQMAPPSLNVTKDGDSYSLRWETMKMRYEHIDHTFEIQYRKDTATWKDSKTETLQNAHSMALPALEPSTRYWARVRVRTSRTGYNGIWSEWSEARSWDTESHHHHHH
Experimental: as §1, §2, §3

shCD131 Q339A = biological target: T4, shCD131 Q339A (human, UniProt P32927 17-438)
T4 construct: C-terminal 6xHis
T4 sequence: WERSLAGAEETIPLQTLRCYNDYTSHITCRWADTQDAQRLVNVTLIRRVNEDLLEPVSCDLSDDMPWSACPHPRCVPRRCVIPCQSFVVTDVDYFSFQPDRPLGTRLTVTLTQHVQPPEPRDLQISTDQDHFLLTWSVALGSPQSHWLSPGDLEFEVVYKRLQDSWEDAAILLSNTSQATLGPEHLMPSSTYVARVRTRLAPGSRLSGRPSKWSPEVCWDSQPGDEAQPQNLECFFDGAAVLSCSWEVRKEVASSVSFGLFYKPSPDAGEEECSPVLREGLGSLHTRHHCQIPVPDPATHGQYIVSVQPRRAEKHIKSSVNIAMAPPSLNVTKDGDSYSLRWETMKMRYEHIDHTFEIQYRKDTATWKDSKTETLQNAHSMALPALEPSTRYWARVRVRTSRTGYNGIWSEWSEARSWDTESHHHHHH
Experimental: as §1, §2, §3

B1: 9A2 Fab (Fab, V domains shown)
VH: EVQLLESGGGLVQPGGSLRLSCAASGFTFSHYHMLWVRQAPGKGLEWVSSIRSSGGFTYYADSVKGRFTISRDNSKNTLYLQMNSLRAEDTAVYYCARFYDSFFDIWGQGTMVTVSS
VL: DIQMTQSPSSVSASVGDRVTITCRASQGISSWLAWYQQKPGKAPKLLIYAASSLQSGVPSRFSGSGSGTDFTLTISSLQPEDFATYYCQQANSFPITFGQGTRLEIKR
notes: also called recombinant Fab of 9A2
- Kd (shCD131 K362A): 64.8 nM and 65 nM
- Kd (shCD131 E366A): 32 nM
- Kd (shCD131 N337A): 91 nM
- Kd (shCD131 Q339A): 144 nM
